Reference: US20210155689A1 (SHANGHAI PHARMAEXPLORER, published 2021)
Primed or numbered codes have the meaning given here. No end group written: not given here. Biotin′ = biotin label at the C-terminus

B1: 405B8H3 (mouse antibody purified from hybridoma) (antibody, V domains shown)
VH: QVQLQQSGAELVRPGASVTLSCKASGYTFTDYEMHWVKQTPVHGLEWIGATDPETGNSAYNQKFKGKAIMTADKSSSTAYMELRSLTSEDSAVYYCISTGWNDWGQGTSLTVSS
VL: DIKMTQSPSSMYASLGERVTITCKASQDINSYLSWFQQKPGKSPKTLIYRADRLLDGVPSRFSGSGSGQDYSLTISSLEYGDMGIYYCLQYDEFPYTFGGGTKLEIK
notes: also called mAb103-405B8H3; 405B81-13
B2: 409B11E12 (mouse antibody purified from hybridoma) (antibody, V domains shown)
VH: QVQLQQSGAELVRPGASVTLSCKASGYTFTDYEMHWVKQTTVHGLEWIGATDPETSYSAYNQKFKGKAILTADKSSSTAYMELRSLTSEDSAVYYCIATGWNDWGQGTSLTVSS
VL: DLKMTQSPSSMYASLGERVTITCKASQDINSYLSWFQQKPGKSPKTLIYRANRLLDGVPSRFSGSGSGQDYSLTISSLEYEDMGIYYCLQYDEFPYTFGGGTKLEIK
notes: also called mAb104-409B11E12
B3: 409D4E10 (mouse antibody purified from hybridoma) (antibody, V domains shown)
VH: QVQLQQSGAELVRPGASVTLSCKASGNTFTDYEMHWVKQTPVHGLEWIGATDPETDNTAYNQKFKGKAILTTDKSSSTAYMELRSLTSEDSAVYYCITSGWNDWGQGTSLTVSS
VL: DIKMTQSPSSMYASLGERVTITCKASQDINSYLSWFQQKPGKSPKTLIYRANRLLDGVPSRFSGSGSGQDYSLTISSLEYEDMGIYYCLQYNEFPYTFGGGTKLEIK
notes: also called mAb112-409D4E10
B4: 556F6B8 mouse-human chimeric antibody (antibody, V domains shown)
VH: RVQLKQSGPGLVQPSQSLSITCTVSGFSLIKYGVHWVRQSPGEGLEWLGVIWRGGITDYNAAFMSRLSITKDNSKSQVFFKMNSLQADDTAIYYCAKWDGPLAMDYWGQGTSVTVSS
VL: DIVMTQSHKFLSTSVGDRVSITCKASQDVGTTVAWYQQKPGQSPKLLIYWASTRHTGVPDRFTGSGSGTDFTLTISNVQSEDLADYFCQQYSSYPYTFGGGTKLEIK
notes: also called mAb123-556F6B8; 556F8B8
B5: 105F1E10 mouse-human chimeric antibody (antibody, V domains shown)
VH: EVQLQQSGPELVKPGASVKMSCRASGYTFTDFKMHWMKQSHGKSLEWIGYIAPNNGGTAYNQKFRGKATLTVNESSNTAYMELRSLTSEDSAVYYCVDWDDVDYWGQGTTLTVSS
VL: DIKMTQSPSSMYASLGERVTITCKASQDINSYLSWFQQKSGKSPKTLIYRANRLVDGVPSRFSGSGSGQDYSLTISSLEYEDMGIYYCLQYVEFPLTFGAGTKLELK
notes: also called mAb009-105F1E10
B6: 405B8H3 mouse-human chimeric antibody (antibody, V domains shown)
VH: QVQLQQSGAELVRPGASVTLSCKASGYTFTDYEMHWVKQTPVHGLEWIGATDPETGNSAYNQKFKGKAIMTADKSSSTAYMELRSLTSEDSAVYYCISTGWNDWGQGTSLTVSS
VL: DIKMTQSPSSMYASLGERVTITCKASQDINSYLSWFQQKPGKSPKTLIYRADRLLDGVPSRFSGSGSGQDYSLTISSLEYGDMGIYYCLQYDEFPYTFGGGTKLEIK
notes: also called mAb103-405B8H3
B7: 409B11E12 mouse-human chimeric antibody (antibody, V domains shown)
VH: QVQLQQSGAELVRPGASVTLSCKASGYTFTDYEMHWVKQTTVHGLEWIGATDPETSYSAYNQKFKGKAILTADKSSSTAYMELRSLTSEDSAVYYCIATGWNDWGQGTSLTVSS
VL: DLKMTQSPSSMYASLGERVTITCKASQDINSYLSWFQQKPGKSPKTLIYRANRLLDGVPSRFSGSGSGQDYSLTISSLEYEDMGIYYCLQYDEFPYTFGGGTKLEIK
notes: also called mAb104-409B11E12
B8: 409D4E10 mouse-human chimeric antibody (antibody, V domains shown)
VH: QVQLQQSGAELVRPGASVTLSCKASGNTFTDYEMHWVKQTPVHGLEWIGATDPETDNTAYNQKFKGKAILTTDKSSSTAYMELRSLTSEDSAVYYCITSGWNDWGQGTSLTVSS
VL: DIKMTQSPSSMYASLGERVTITCKASQDINSYLSWFQQKPGKSPKTLIYRANRLLDGVPSRFSGSGSGQDYSLTISSLEYEDMGIYYCLQYNEFPYTFGGGTKLEIK
notes: also called mAb112-409D4E10
B9: 105F1E10 (mouse antibody purified from hybridoma) (antibody, V domains shown)
VH: EVQLQQSGPELVKPGASVKMSCRASGYTFTDFKMHWMKQSHGKSLEWIGYIAPNNGGTAYNQKFRGKATLTVNESSNTAYMELRSLTSEDSAVYYCVDWDDVDYWGQGTTLTVSS
VL: DIKMTQSPSSMYASLGERVTITCKASQDINSYLSWFQQKSGKSPKTLIYRANRLVDGVPSRFSGSGSGQDYSLTISSLEYEDMGIYYCLQYVEFPLTFGAGTKLELK
notes: also called mAb009-105F1E10

How the values were obtained:
PAAPSSWGPRPRK-Biotin = molecular target: T1, PAAPSSWGPRPRK-Biotin (human); test: peptide scanning ELISA, biotin peptide on streptavidin
T1 construct: Overlapping peptide of the outer loop of human LAG-3; also called LAG-3 Extra cyclic peptide
T1 peptide: PAAPSSWGPRPRK-{Biotin′}
Experimental: (§1) Fifteen overlapping peptides including the full length of the outer loop sequence were prepared and biotin was coupled to each C-terminus. Enzyme-linked immunosorbent assay (ELISA) was used to detect the binding of antibodies to these peptides. Streptavidin (sigma, Cat #M5432) was diluted with PBS to a final concentration of 1.0 μg/ml, and then added as 100 μl per well to a 96-well ELISA plate. The plate was sealed with plastic film and incubated overnight at 4° C. The plate was washed 2 times with the plate washing solution (PBS+0.01% Tween20) on the next day, and added with the blocking solution (PBS+0.01% Tween20+1% BSA) and blocked at room temperature for 1-2 hours. The blocking solution was poured off, and biotinylated peptides was added to a final concentration of 1 ug/ml, as 100 ul per well to the 96-well ELISA plate, incubated at 37° C. for 1-2 hours, then washed with plate washing solution (PBS+0.01% Tween20)2-3 times. Then the antibody samples to be tested were incubated as 100 μl per well at 37° C. for 1-2 hours, and then the plate was washed 2-3 times with a plate washing solution (PBS+0.01% Tween20). HRP (horseradish peroxidase) labeled secondary antibody was added, and the plate was incubated at 37° C. for 1-2 hours, and washed 2-3 times with a plate washing solution (PBS+0.01% Tween20). 100 μl of TMB substrate was added to each well. After incubated at room temperature for 15-30 minutes, the plate was added with 100 μl of stop solution (1.0N HCl) to each well.

AAPSSWGPRPRRK-Biotin = molecular target: T2, AAPSSWGPRPRRK-Biotin (human); test: as above
T2 construct: Overlapping peptide of the outer loop of human LAG-3; also called LAG-3 Extra cyclic peptide
T2 peptide: AAPSSWGPRPRRK-{Biotin′}
Experimental: as §1

APSSWGPRPRRYK-Biotin = molecular target: T3, APSSWGPRPRRYK-Biotin (human); test: as above
T3 construct: Overlapping peptide of the outer loop of human LAG-3; also called LAG-3 Extra cyclic peptide
T3 peptide: APSSWGPRPRRYK-{Biotin′}
Experimental: as §1

PSSWGPRPRRYTK-Biotin = molecular target: T4, PSSWGPRPRRYTK-Biotin (human); test: as above
T4 construct: Overlapping peptide of the outer loop of human LAG-3; also called LAG-3 Extra cyclic peptide
T4 peptide: PSSWGPRPRRYTK-{Biotin′}
Experimental: as §1

SSWGPRPRRYTVK-Biotin = molecular target: T5, SSWGPRPRRYTVK-Biotin (human); test: as above
T5 construct: Overlapping peptide of the outer loop of human LAG-3; also called LAG-3 Extra cyclic peptide
T5 peptide: SSWGPRPRRYTVK-{Biotin′}
Experimental: as §1

SWGPRPRRYTVLK-Biotin = molecular target: T6, SWGPRPRRYTVLK-Biotin (human); test: as above
T6 construct: Overlapping peptide of the outer loop of human LAG-3; also called LAG-3 Extra cyclic peptide
T6 peptide: SWGPRPRRYTVLK-{Biotin′}
Experimental: as §1

WGPRPRRYTVLSK-Biotin = molecular target: T7, WGPRPRRYTVLSK-Biotin (human); test: as above
T7 construct: Overlapping peptide of the outer loop of human LAG-3; also called LAG-3 Extra cyclic peptide
T7 peptide: WGPRPRRYTVLSK-{Biotin′}
Experimental: as §1

[1] = molecular target: T8, GPPAAAPGHPLAPGPHPAAPSSWGPRPRRYK-biotin (full length of the outer loop) (human, biotin coupled to the C-terminus (K-biotin)); test: as above
T8 construct: Printed over two rows (r36 and r37; again r54 and r55); also called LAG-3 Extra cyclic peptide
T8 peptide: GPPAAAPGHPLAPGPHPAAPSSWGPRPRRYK
Experimental: as §1

[2] = molecular target: T9, monkey LAG-3 on cells (HEK293-cLAG-3 stable cell line) (monkey, UniProt P18627 24-525 (human entry)); test: FACS, HEK293-cLAG-3, antibody 1.600 nM
T9 construct: Full-length monkey (Chinese monkey) LAG-3 gene expressed on HEK293 cells
T9 chain: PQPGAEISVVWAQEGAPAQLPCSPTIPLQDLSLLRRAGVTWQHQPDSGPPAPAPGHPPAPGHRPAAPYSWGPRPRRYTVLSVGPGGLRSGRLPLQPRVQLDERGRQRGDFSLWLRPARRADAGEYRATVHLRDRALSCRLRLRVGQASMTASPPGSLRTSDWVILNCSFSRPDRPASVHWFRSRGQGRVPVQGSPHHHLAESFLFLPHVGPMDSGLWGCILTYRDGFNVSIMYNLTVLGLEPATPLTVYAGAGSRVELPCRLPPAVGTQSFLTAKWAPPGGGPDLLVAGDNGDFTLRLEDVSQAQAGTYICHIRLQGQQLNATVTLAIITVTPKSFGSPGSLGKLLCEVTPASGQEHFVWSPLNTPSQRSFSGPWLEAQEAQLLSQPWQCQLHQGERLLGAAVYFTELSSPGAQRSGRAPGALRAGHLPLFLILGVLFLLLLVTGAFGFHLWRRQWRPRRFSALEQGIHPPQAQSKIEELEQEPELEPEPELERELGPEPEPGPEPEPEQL
Excerpt: (§2) The pIRES plasmid with the monkey-derived full-length gene was transfected into the HEK293 cell line to construct a HEK293 stable cell line containing monkey LAG-3 (herein referred to as HEK293-cLAG-3 stable cell line). The HEK293-hLAG-3 stable cell line and HEK293-cLAG-3 stable cell line were expanded in a T-75 cell culture flask to a 90% confluence. The medium was aspirated, and the cells were washed with HBSS (Hanks' Balanced Salt Solution) 1-2 times, then treated with a enzyme-free cell dissociation fluid (Versene solution: Life technology) and the cells were collected. The cells were washed with HBSS buffer for 1-2 times. After counted, the cells were diluted with HBSS to 1-2×10⁶ cells per ml, added with 1% goat serum blocking solution, incubated on ice for 20-30 minutes, and then washed with HBSS for 2 times by centrifugation. The collected cells were suspended in the FACS buffer (HBSS+1% BSA) to 2×10⁶ cells/ml, added as 100 microliters per well to a 96-well FACS reaction plate, added with 100 microliters per well of the antibody sample to be tested, incubated on ice for 1-2 hours. The plate was washed twice with the FACS buffer by centrifugation, added with 100 microliters of fluorescent (Alexa 488)-labeled secondary antibodies per well, and incubated on ice for 0.5-1.0 hours. The plate was washed 2-3 times with FACS buffer by centrifugation, added with 100 μl fixative solution (4% Paraformaldehyde) per well to suspend the cells. 5-10 minutes later, it was washed 1-2 times with FACS buffer by centrifugation. The cells were suspended with 100 microliters of FACS buffer, FACS (FACSCalibur, BD) was used for detection and the results were analyzed.

[3] = molecular target: T9, monkey LAG-3 on cells (HEK293-cLAG-3 …); test: FACS, HEK293-cLAG-3, antibody 200.000 nM
Excerpt: as §2

| Binder | binding result (PAAPSSWGPRPRK-Biotin) | binding result (AAPSSWGPRPRRK-Biotin) | binding result (APSSWGPRPRRYK-Biotin) | binding result (PSSWGPRPRRYTK-Biotin) | binding result (SSWGPRPRRYTVK-Biotin) | binding result (SWGPRPRRYTVLK-Biotin) | binding result (WGPRPRRYTVLSK-Biotin) | binding result [1] | Mean fluorescence intensity [2] | Mean fluorescence intensity [3] |
| --- | --- | --- | --- | --- | --- | --- | --- | --- | --- | --- |
| B1 | binds | binds | binds | binds | binds | binds | binds | binds |  |  |
| B2 | binds | binds | binds | binds | binds | binds | binds | binds |  |  |
| B3 | binds | binds | binds | binds | binds | binds | binds | binds |  |  |
| B4 |  |  |  |  |  |  |  |  | 19.2 | 90.5 |
| B5 |  |  |  |  |  |  |  |  | 14.7 | 94.5 |
| B6 |  |  |  |  |  |  |  |  | 29.4 | 108 |
| B7 |  |  |  |  |  |  |  |  | 32.8 | 114 |
| B8 |  |  |  |  |  |  |  |  | 25.8 | 103 |
| B9 | binds | binds | binds | binds | binds | binds | binds | binds |  |  |
